We go through one molecule from patent WO2011104307A2 (dated 2011).

In the test the target is T1, rProtein A Sepharose FF (Staphylococcus aureus, UniProt P38507 37-327).
T1 construct: the protein ligand is immobilized on agarose beads; also called rProtein A Sepharose 4 FF
The test is described as follows: microtiter plate column chromatography, Bradford assay; Bound (%).

B1: Bevacizumab Fab fragment (Fab, V domains shown)
VH: EVQLVESGGGLVQPGGSLRLSCAASGYTFTNYGMNWVRQAPGKGLEWVGWINTYTGEPTYAADFKRRFTFSLDTSKSTAYLQMNSLRAEDTAVYYCAKYPHYYGSSHWYFDVWGQGTLVTVSS
VL: DIQMTQSPSSLSASVGDRVTITCSASQDISNYLNWYQQKPGKAPKVLIYFTSSLHSGVPSRFSGSGSGTDFTLTISSLQPEDFATYYCQQYSTVPWTFGQGTKVEIKR
notes: also called Fab fragments
Take B1: the binding result is listed as “no binding”.
